Data from patent publication US20170107294A1, “ANTI-CD14 ANTIBODIES AND USES THEREOF” (Nordlandssykehuset HF, priority 2014, published 2017).

B1: F(ab)92 fragment of 18D11: F(ab)92 fragment of the murine anti-human CD14 clone 18D11 (Diatec) (antibody, V domains shown)
VH: EVQLVESGGGLMQPKGSLKLSCAASGFTFKTYALNWVRQAPGTGLEWVARIRSKSNNYTTYYADSVKDRFTISRDDSQNMLYLQMNNLKTEDTAMYYCVRPQSGTSFAYWGQGTLVTVSAA
VL: NIVLTQSPASLAVSLGQRATISCRASESVDSYGNSFMHWYQQKPGQPPKLLIYLASNLESGVPARFSGSGSRTDFTLTIDPVEADDVATYYCQQNNGDPYTFGGGTKLEIIR
B2: 18D11: mouse anti-human CD14 IgG1 clone 18D11 (Diatec), original murine clone (antibody, V domains shown)
VH: B1 VH
VL: B1 VL

Assays:
[1] = system: human whole blood; assay: Unwanted effects (complement activation, oxidative burst) in nonstimulated human whole blood; format: cell-based; details: 10 mg/ml Ab; for complement activation: not shown
Protocol: (§1) The whole blood model has been described in detail previously (36). Fresh human venous or porcine arterial blood was drawn directly into tubes containing the anticoagulant lepirudin (Pharmion) at a final concentration of 50 mg/ml. In 1.8-ml Cryo Tube vials (Nunc, Roskilde, Denmark), the blood was preincubated with up to 20 mg/ml anti-human CD14 (r18D11 or 18D11), or 50 mg/ml anti-porcine CD14 (rMil2 or Mil2) at 37° C. for 10 min prior to an additional 2-h incubation in the presence of 100 ng/ml ultrapure LPS from Escherichia coli 0111:B4 (InvivoGen, San Diego, Calif.) for human blood or 1 3 105/ml heat-inactivated E. coli (strain LE392, ATCC33572) for porcine blood. As negative controls, PBS with MgCl2 and CaCl2 (Sigma-Aldrich) and isotype controls were used. Adverse effects were tested using nonactivated whole blood samples. After the addition of 10 mM (human) or 20 mM (porcine) EDTA, plasma was gained by 15 min centrifugation at 3220 3 g and 4° C. Levels of TNF, IL-6, and IL-1b in human plasma were determined using Bioplex technology (Bio-Rad Laboratories AB). Levels of TNF, IL-1b, and IL-8 in porcine plasma were determined using ELISA (Quantikine, R&D Systems, Minneapolis, Minn.). Platelet count was quantified by impedance using a CELL-DYN Sapphire hematology analyzer (Abbott Laboratories, Abbott Park, Ill.).

[2] = system: human whole blood; assay: Whole blood ex vivo model of inflammation, LPS-induced cytokine release in human blood; format: cell-based; design: Ab concentration at which maximum inhibitory effects were reached: unit not given here
Protocol: as §1

Row | Molecule | complement activation [1] | monocyte oxidative burst ([1]; flow cytometry) | E. coli ultrapure LPS-induced release of IL-1b, TNF and IL-6 ([2]; 100 ng/ml LPS, dose-dependent) | Ab concentration at which maximum inhibitory effects were reached ([2]; LPS-induced IL-1b, TNF, IL-6 release)
1 | B1 | did not | – | – | –
2 | B2 | same low level of complement activation | significantly induced | inhibited | 10
